# Data reported in a protein production outcome set (Wang et al. 2014).
# Test: label from the status in PepcDB records
row,Sequence,protein production
1,MANNELQIAGSQGELRIRPYEHHAKYYETDQMGIIHHSNYVKWMEEARLDLMDQIGLNYRQMEDMEIISPVLSISVEYHSMVHFDDTVVIYTKLLKYNGIKMELEYVMKDKETGELRTTAKSSHCFLNKSGKPISLKRMYPELDTKFFEFKEA,failed
2,MANPPSQEADHLVEAFRYTVAKLFLQQAQKDHLKADKEAIFVLSELLLGYIEILTADLEAFCRHGKRTTITADDVLLCCRRNENLVSRHMLINRAAAEISSFP,failed
3,MANRQRGVALIIVLMLLAIMATIAATMSERLFLQFQRGSNQIHYQQAYWYSVGVEALAEVGIEQSYKDSDTINLSQPWAIKEQVYPLDYGQAAGRIWDKQACFNLNVLSRVQPTGQQTTRPYLVQVLQRLLEESDVEPYQAEVIADSTWEYIDSDSTVRSTTGVEDSTYESMKPSYLAANGWMADKTELRAVYQVSGEIYQKIEPLVCAIPSDDWRLNVNTIEVEQAPILVAMFSPNLSSSDAVQLIEKRPFDGWDSVDEFLAESELTGLSDDVKKNAKGYLGVDSSFFELDAQVLVDDSRVRIRSLLQSTNRETVTVVRRRFGGISERVSDRSAE,failed
4,MANVFLISSRNRRSMRTTTESKPKNLTVKRSDSSSDYNYSCKKHPKHRQSPGICSLCLNESLSKLSSEFYDYSSSMSSSSLAKTMSSCSSASSESESDFSSTAISSYYSSVSSCLSPLQHRYSEIVVNKKKKKHVKKQSFLSRLFLKQRIQTKAVIGWHMTLQLAIQLMYGKRKKTCHASFIQVWY,failed
5,MAPAPAAEFWEARYRDTGRVWSGRPNELLVQEAGGLAPGTALDLGCGEGADAVWLASRGWRVTGVDISATALERAAGHADGAGVGDRVLWERHELGPSFPEGSFDLVSAHYLQSPVALDQQAVLRAAARAVAPGGTLLVVMHAGWPSWQTEPPFDAAFPTLDGVLAELALPEGEWSVETRRTARRPLEHHHHHH,failed
6,MAPAPAAEFWEARYRDTGRVWSGRPNELLVQEAGGLAPGTALDLGCGEGADAVWLASRGWRVTGVDISATALERAAGHADGAGVGDRVLWERHELGPSFPEGSFDLVSAHYLQSPVALDQQAVLRAAARAVAPGGTLLVVMHAGWPSWQTEPPFDAAFPTLDGVLAELALPEGEWSVETRRTARRPSVAPDGTEGFREDHVWRLKRAVLEHHHHHH,not failed
7,MAPIFRNYRFAIGAFAVIMLILLIKTSSIGPPSIARTVTPNASIPKTPEDISILPVNDEPGYLQDSKTEQNYPELADAVKSQTSQTCSEEHKYVIMIDAGSTGSRVHIYKFDVCTSPPTLLDEKFDMLEPGLSSFDTDSVGAANSLDPLLKVAMNYVPIKARSCTPVAVKATAGLRLLGDAKSSKILSAVRDHLEKDYPFPVVEGDGVSIMGGDEEGVFAWITTNYLLGNIGANGPKLPTAAVFDLGGGSTQIVFEPTFPINEKMVDGEHKFDLKFGDENYTLYQFSHLGYGLKEGRNKVNSVLVENALKDGKILKGDNTKTHQLSSPCLPPKVNATNEKVTLESKETYTIDFIGPDEPSGAQCRFLTDEILNKDAQCQSPPCSFNGVHQPSLVRTFKESNDIYIFSYFYDRTRPLGMPLSFTLNELNDLARIVCKGEETWNSVFSGIAGSLDELESDSHFCLDLSFQVSLLHTGYDIPLQRELRTGKKIANKEIGWCLGASLPLLKADNWKCKIQSA,failed
8,MAPKDQAADMDYDQTKKMVVDILKTDDGKKAIKELLNDDAMNEALVIDQDAIKGTIEKTLTSKKGEEFWKNIFEDTDFAEGFAKTLQTEHEKVIKKLMKDPDYQKMLMSVMQDPGMDKKYSQLAKSQEFRSYLEEVINETLSSPLYKKQFEDELKKAAKDTAKESELEHHHHHH,not failed
9,MAPLLMILAAQLLIASGNLLVKLLETNTPVFQLVLYRQLFATLLVLPFVWHLQGNLKLSPFYKVHLSRALLIGLGNAIFMLAVLHLPLATVTAVIYSSPLILLLLSAFFLNERIGYRRSVAGLIGFTGILLISQPTEVNLYIGLAFFGAMISAINSLILKAYSTHEHPFSTLFWSNAFAMVFLIPATWYEGANFSLPVAQVGLTLGVFYVGMTYLIIHAYRRADASQMAPVEYTGLIFAALLGWWFLDETLSVVVCIGIGLVIFSSLLPSYGELKAKWKSRRR,failed
10,MAPLSFEVRSVSVLVLVLAVSAAFCLGIGFVLQQNAAQHAPLSDFLSPRLLLDLMHVRRWLGGIGFMVVGMVLGAVALAHGELSLVEPLLATNLLFALGLSRRQTKQPLGRQGWAGLALLAGGVTAFIVAGQPTGGDAVTNPLRHWVIIGVMVGFALLLTTYAKQSRLSAAPVLLSLAAGLLYGVQDALTRVSGQRFSEGGWPELVTGWQPYAVLALGVTGLVLVQSAFETAPLRMSLPALTAAQPLAGIVCGVGFLGDQLRTDTGALAWEAAGLAAVVLGIVLLGLHPAMPRGSAEAERQRDLQPH,failed
11,MAPNASCLCVHVRSEEWDLMTFDANPYDSVKKIKEHVRSKTKVPVQDQVLLLGSKILKPRRSLSSYGIDKEKTIHLTLKVVKPSDEELP,failed
12,MAPPTAAPEPNTVPETSPTGHRMFSRIRLATPTDVPFIHKLIHQMAVFERLTHLFVATESGLASTLFNSRPFQAVTVFLLEISPSPFPTTHDASSPDFTPFLETHKVDLPIEDPDREKFLPDKLNDVVVAGFVLFFPNYPSFLAKQGFYIEDIFMREPYRRKGFGKLLLTAVAKQAVKLGVGRVEWIVIDWNVNAINFYEQMGAQVFKEWRLCRLTGDALQAIDKLNI,failed
13,MAPQKPVSAAQTAQHSAVWIDVRSEQEFSEGHLHNAVNIPVDQIVRRIYEAAPDKDTPVNLYCRSGRRAEAALQELKKAGYTNVANHGGYEDLLKKGLEHHHHHH,not failed
14,MAPQSHGRSRINSIDMMRGLVMLIMLLDHVREQFFLHMQVSDPMDLSTTTWDLFVSRFAAHFCAPVFVFLTGVSAWLYANRGHGEPRSVRVFLLKRGLFLIALEVLVINFSWMGNYHTLWLQVIWVIGLSMLALAALIKLPRLWMALLGLLIVFGHNLLSPIHFEPDTWGYSLWTILHDRGYLIAEGDLKLKVSYPLLPWIGVILLGYVAGPLFSRKFEAWQRQQRLMLLGVGCFAFFCLLRGFNLYGETLPWQVGESIGQTLMSVFNLTKYPPSLSFLLVTLGGMFCGLVLFERYFAAGSLFSWIGQKLAVFGSVPMFFYILHLYVLLLLYLVAKGLFGANHGELFGVAHMGWVWLISLVLIPLLYYPVSWFSRYKSQSQQAWLKYL,failed
15,MAPSSSTFKQVADDWLKQYANDVKVSSVRAREKAIQHAIERFNTKPIQTIKKHDYQRFVDDISAQYSKNYVDSIVASTNMIFKYAYDTRLIKAMPSEGIKRPKKKLEHHHHHH,not failed
16,MAPTFSPNPQNFTKKDKTKAERRKPEEGDDDHHHNASQLFLNPWQTRAARCRSLANGMLMTLHQLRGLLLSSTKLETRRKEVENLTHQGKMNLDIIKMGKFLRNPPKNGFAVYAQNKWRGVCLGRSFIYI,failed
17,MAQAPDSSVPVRMVVDLTVDDYAAFTAYAYQRPALRRRRHASHLRFAVLLAAGLLAVILLRVWDGRQLDWGAALPAYAQALVVGLAVFALLAVGYEYALPRLARGNVRRALGRQPDNPFLGRHTLDFGPRGVDDAAAGASGTMPWEAVGQVEETASHLYLFISPLQGVIIPKRGQSADVLQAVRAQLRAHVPGAALADAADKQ,failed
18,MAQGFKITYTDQACLLDIQDPQNKESQSFHYALVPRGVEAENIPADYTVIETPIRSVICMTSLQLSNFIKLEELDAVVGITSTRHLFNKKINDRLKDGSIHKIGIEGNFDNEVIMSVNPDLILISPFKRGGYDALKEVGIPLMPHLGYKEMTPLGQAEWIKFVGLLLGREDKANKQFAAIKKRYNELKELTGLEHHHHHH,failed
19,MAQHHGHLGAVYDAAGPQEVAALYDRWAETYESEMARAGYRHPAIGVALLARHLPRGARPLLDAGAGTGLLGEWLEIVGYPEVEALDISAGMLEVARAKGIYARCHNLPLGAALPFRDGAFAGIISTGVFTTGHVGAEALPELLRICRPGGVIVLTVKESLWQGGFAVSLEAAVASGLEHHHHHH,failed
20,MAQKDRNTRIAQKAFEMVDKVYGKSPNLTTKPYDPKDESPSRFTQSAYKYGGPKIYTVREATSTYSYGRAIYMYAPESTIKEPVVSHPTEHIQYYGGTRPFVANPNRFERPKGRVINCDEAVQLYGGVLIKEFRK,failed
21,MAQKILVEQVVKRKAIVVQPKDTVDRVAKILSRNKAGSAVVMEGDEILGVVTERDILDKVVAKGKNPKEVKVEEIMTKNPVKIEYDYDIEDVIELMTEKGVRRVLVTKFGKPIGFVTAADILAALASHNHEEEEEEREEESEVYGICEVCGQYGALYKVYHEGRELWVCETCKDLIEGR,not failed
22,MAQKKGFKYRFYPTDKQKAVLAKVFGHTRYVWNWALELRTDAYYEEGESLSYTDTAKRLTDLKKEKTWLREVSSVALQQKLRDLDQAFQNFFDGRCGYPNFKSKHDKQAARFASNAFTLHGKKLSVAKVPGSLNVRWSRDLPDEAKPTSVTLTKDPAGRYFVSITSAVPEPDPEPTVTDGDGNQKSVGIDLGIADIVVTSDGWKSGNPRHLENDLYRLRKAQRRLSRKEKNGSDGPSENWKKQKRRVAKIHAEIKDKREDFLHKLSRRVVDENQVIALESLSVKGMQQNRSLARPISDTGWSTLVRMIEYKAKEAGRTVVKIDRWFPSTKRCSECGYVTESKPLSVRSWDCPRCDTTHDRDINAAKNIRTAGLAGAFQKANDSGGHSKTRDAFRIERFGANAHGPVNE,failed
23,MAQKLYPPIHPGEILMEDFIKGFGLTQNKVAVSIGVPPRRINEIVHGKRSITADTALRLGRYFGIDPQFWLSLQTQYELELDRDAGAATYAQITPLKVA,failed
24,MAQLTPLDISFIAGYLLLTLLVGLFFSRRASENVGEFFLSGRKLPWWIAGTGMVATTFAADTPLAVAGFVAKNGIAGNWVWWTFVSGGMLTVFFFARLWRRANILTDLEFIELRYSGKAASFLRGFKAVYFGLFINAVIIGWVNLAMFKIIKIMIPGLDPQLTIVGLVIFTAIYSGMSGLWGVSITDAVQFVIAMAGCIILAVLAVNSPQVTAAGGLKQALPDWMFDFFPSFSSTVNTSATGAYALPFTAFAAMAFVQWWASWYPGAEPGGGGYIAQRMMSAKDEKNSLLATLWFTIAHYCVRPWPWIVVGLASLVMFPNLPAGQKEDGFVHVMNAVLPAGLKGLLIAAFMAAYMSTLSTHLNWGTSYLINDLYKRFIKREAEQNHYVLMSRIVTAVTAIFALYITFYVLETITGAWEFIIQCGAGTGFVLIMRWFWWRLNAWSEITSMVAPIVAYSYINQFTTIVFPESIYIIVLFTITCTLAVTWLTKPTDREKLHAFYRTTRVGGALWKPVADEMPDVKGDTGFPALFADWFFGIVLVYATLFGTGKLIFGEPVAAALYYAAGALAGVMIYRDLSKRNWKTFD,failed
25,MAQNEGVSFSECVAAAKLIRSSNGPGWRQAWEELARSHVQRAEEARRTGNEPEAQKSWLHAANYFMAAAIESCPEGAEPALGALARSCLHNYLAHLTPQGETVAIPWLEPRSLEGFYLPVGTYSAETGPVVVCIAETRRTKEEILSLVLRSARKRGMTLLCVDLPDEPPSSRAGPETGIPAILDYLIDGRGIDAKRIAVISDGSPSSLVTRGIALDGRIAAAVCDGGLWDLWVARQTEACGAALGMVQGCARRPAVSCPMLVPLLASEGIEPGHARQLLTEHHPGNRDILLKVFGETSSGPWTLNGYDPILVADFVFDWVGQQLKAATGDADCIRRLESRL,failed
26,MAQNKNLNLELSLSQYVEDDPWVLKKKLSDSDLYYSAQLYLPKQEMEHFVLPEMDHDLVRKLGAGVEVKVRDVDSVDDFYTVRLKVRNGQYYLGKGWGLIKNAKVLNTGDHIGLFWDKLTREVKFKHFKSQSITMHREAGTTSTQKNVLQKK,failed
